These binders were tested against T1, VEGF (UniProt P15692-4 27-191) (assay: SPR (Biacore), DVD-Ig captured, VEGF in solution).
T1 construct: Bought reagent; also called vascular endothelial growth factor
T1 sequence (P15692 other isoform, or with tags, fused parts or gaps limits assumed): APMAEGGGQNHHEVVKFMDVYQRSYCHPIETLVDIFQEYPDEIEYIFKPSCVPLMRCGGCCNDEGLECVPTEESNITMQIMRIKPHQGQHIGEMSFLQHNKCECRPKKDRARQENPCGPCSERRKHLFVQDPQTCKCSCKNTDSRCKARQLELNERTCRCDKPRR

Row | Binder | Kd [pM] | koff [s⁻¹] | kon [M⁻¹ s⁻¹]
1 | DVD443 (bispecific antibody, human IgG1, kappa, DVD-Ig; N-term; VD AB069 (DLL4), C-term; VD AB070 (VEGF); HC linker short, LC linker short; also called DVD443H; DVD443L) heavy: not shown light: DIVMTQSPDSLAVSLGERATISCRASESVDNYGISFMKWFQQKPGQPPKLLIYAASNQGSGVPDRFSGSGSGTDFTLTISSLQAEDVAVYYCQQSKEVPWTFGGGTKVEIKRTVAAPDIQMTQSPSSLSASVGDRVTITCRASQDVSTAVAWYQQKPGKAPKLLIYSASFLYSGVPSRFSGSGSGTDFTLTISSLQPEDFATYYCQQSYTTPPTFGQGTKVEIKRTVAAPSVFIFPPSDEQLKSGTASVVCLLNNFYPREAKVQWKVDNALQSGNSQESVTEQDSKDSTYSLSSTLTLSKADYEKHKVYACEVTHQGLSSPVTKSFNRGEC | 1710 | 0.000267 | 157000
2 | DVD465 (bispecific antibody, human IgG1, kappa, DVD-Ig; N-term; VD AB015 (DLL4), C-term; VD AB070 (VEGF); HC linker short, LC linker short; also called DVD465H; DVD465L) heavy: not shown light: DIQMTQSPSSLSASVGDRVTITCRASQDVSTAVAWYQQKPGKAPKLLIYSASFLYSGVPSRFSGSGSGTDFTLTISSLQPEDFATTYYCQQSYTGTVTFGQGTKVEIKRTVAAPDIQMTQSPSSLSASVGDRVTITCRASQDVSTAVAWYQQKPGKAPKLLIYSASFLYSGVPSRFSGSGSGTDFTLTISSLQPEDFATYYCQQSYTTPPTFGQGTKVEIKRTVAAPSVFIFPPSDEQLKSGTASVVCLLNNFYPREAKVQWKVDNALQSGNSQESVTEQDSKDSTYSLSSTLTLSKADYEKHKVYACEVTHQGLSSPVTKSFNRGEC | 1190 | 0.000414 | 348000
3 | DVD477 (bispecific antibody, human IgG1, kappa, L234A L235A, DVD-Ig; N-term; VD AB015 (DLL4), C-term; VD AB070 (VEGF); HC linker long, LC linker short; also called DVD477H; DVD477L) heavy: not shown light: DIQMTQSPSSLSASVGDRVTITCRASQDVSTAVAWYQQKPGKAPKLLIYSASFLYSGVPSRFSGSGSGTDFTLTISSLQPEDFATTYYCQQSYTGTVTFGQGTKVEIKRTVAAPDIQMTQSPSSLSASVGDRVTITCRASQDVSTAVAWYQQKPGKAPKLLIYSASFLYSGVPSRFSGSGSGTDFTLTISSLQPEDFATYYCQQSYTTPPTFGQGTKVEIKRTVAAPSVFIFPPSDEQLKSGTASVVCLLNNFYPREAKVQWKVDNALQSGNSQESVTEQDSKDSTYSLSSTLTLSKADYEKHKVYACEVTHQGLSSPVTKSFNRGEC | 1020 | 0.000254 | 249000
4 | DVD471 (bispecific antibody, human IgG1, kappa, L234A L235A, DVD-Ig; N-term; VD AB015 (DLL4), C-term; VD AB070 (VEGF); HC linker long, LC linker long; also called DVD471H; DVD471L) heavy: not shown light: DIQMTQSPSSLSASVGDRVTITCRASQDVSTAVAWYQQKPGKAPKLLIYSASFLYSGVPSRFSGSGSGTDFTLTISSLQPEDFATTYYCQQSYTGTVTFGQGTKVEIKRTVAAPSVFIFPPDIQMTQSPSSLSASVGDRVTITCRASQDVSTAVAWYQQKPGKAPKLLIYSASFLYSGVPSRFSGSGSGTDFTLTISSLQPEDFATYYCQQSYTTPPTFGQGTKVEIKRTVAAPSVFIFPPSDEQLKSGTASVVCLLNNFYPREAKVQWKVDNALQSGNSQESVTEQDSKDSTYSLSSTLTLSKADYEKHKVYACEVTHQGLSSPVTKSFNRGEC | 917 | 0.000232 | 253000
5 | DVD483 (bispecific antibody, human IgG1, kappa, DVD-Ig; N-term; VD AB015 (DLL4), C-term; VD AB070 (VEGF); HC linker short, LC linker long; also called DVD483H; DVD483L) heavy: not shown light: DIQMTQSPSSLSASVGDRVTITCRASQDVSTAVAWYQQKPGKAPKLLIYSASFLYSGVPSRFSGSGSGTDFTLTISSLQPEDFATTYYCQQSYTGTVTFGQGTKVEIKRTVAAPSVFIFPPDIQMTQSPSSLSASVGDRVTITCRASQDVSTAVAWYQQKPGKAPKLLIYSASFLYSGVPSRFSGSGSGTDFTLTISSLQPEDFATYYCQQSYTTPPTFGQGTKVEIKRTVAAPSVFIFPPSDEQLKSGTASVVCLLNNFYPREAKVQWKVDNALQSGNSQESVTEQDSKDSTYSLSSTLTLSKADYEKHKVYACEVTHQGLSSPVTKSFNRGEC | 963 | 0.000872 | 905000
6 | DVD449 (bispecific antibody, human IgG1, kappa, DVD-Ig; N-term; VD AB069 (DLL4), C-term; VD AB070 (VEGF); HC linker long, LC linker long; also called DVD449H; DVD449L) heavy: not shown light: DIVMTQSPDSLAVSLGERATISCRASESVDNYGISFMKWFQQKPGQPPKLLIYAASNQGSGVPDRFSGSGSGTDFTLTISSLQAEDVAVYYCQQSKEVPWTFGGGTKVEIKRTVAAPSVFIFPPDIQMTQSPSSLSASVGDRVTITCRASQDVSTAVAWYQQKPGKAPKLLIYSASFLYSGVPSRFSGSGSGTDFTLTISSLQPEDFATYYCQQSYTTPPTFGQGTKVEIKRTVAAPSVFIFPPSDEQLKSGTASVVCLLNNFYPREAKVQWKVDNALQSGNSQESVTEQDSKDSTYSLSSTLTLSKADYEKHKVYACEVTHQGLSSPVTKSFNRGEC | 903 | 0.000208 | 230000
